We go through 1 molecule from publication doi:10.1101/2025.08.16.670655, “A Phosphorelay Circuit Drives Extracellular Alkalinization in Plant Receptor Kinase Signaling” (bioRxiv, 2025).

The target of the assay is T1, His-BIK1 (Arabidopsis thaliana, UniProt O48814 1-395).
T1 construct: BIK1, Arabidopsis; CDS cloned into pET28a, 6xHis fusion; source: E. coli BL21 (DE3) Rosetta pLysS, purified (HisPur cobalt resin); not shown: His6, N-terminal, kept
T1 sequence (looked up): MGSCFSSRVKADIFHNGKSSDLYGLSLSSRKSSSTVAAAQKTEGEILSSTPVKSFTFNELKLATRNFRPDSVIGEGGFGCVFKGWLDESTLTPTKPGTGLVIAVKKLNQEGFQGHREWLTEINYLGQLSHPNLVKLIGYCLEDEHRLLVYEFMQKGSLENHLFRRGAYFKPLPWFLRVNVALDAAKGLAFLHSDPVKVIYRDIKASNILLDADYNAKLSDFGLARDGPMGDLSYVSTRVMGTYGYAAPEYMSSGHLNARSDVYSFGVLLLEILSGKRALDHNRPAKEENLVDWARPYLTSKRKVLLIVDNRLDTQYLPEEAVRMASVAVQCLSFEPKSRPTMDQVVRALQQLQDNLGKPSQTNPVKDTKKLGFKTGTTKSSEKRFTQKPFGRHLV
As to the kind of experiment: pull-down; MBP pulldown of His-BIK1 by His-MBP fusion proteins; 25 mM Tris-HCl pH 7.4, 100 mM NaCl, 0.2 % Triton X-100, 1 mM DTT, 4 °C, 1-2 h. The following applies: both partners purified.

B1: His-MBP-GRF2 (natural protein, Arabidopsis thaliana, UniProt Q01525 1-259, looked up)
chain: MASGREEFVYMAKLAEQAERYEEMVEFMEKVSAAVDGDELTVEERNLLSVAYKNVIGARRASWRIISSIEQKEESRGNDDHVTAIREYRSKIETELSGICDGILKLLDSRLIPAAASGDSKVFYLKMKGDYHRYLAEFKTGQERKDAAEHTLAAYKSAQDIANAELAPTHPIRLGLALNFSVFYYEILNSPDRACNLAKQAFDEAIAELDTLGEESYKDSTLIMQLLRDNLTLWTSDMQDDAADEIKEAAAPKPTEEQQ
notes: GRF2, Arabidopsis; CDS cloned into pOPINM, 6xHis-MBP fusion; source: E. coli BL21 (DE3) Rosetta pLysS, purified (HisPur cobalt resin); not shown: His6, N-terminal, kept; MBP, N-terminal, kept
Regarding B1, the binding result is reported as “binds”.
